The target in this data set is W-SCAT protein (Venus - caspase 3 substrate site - Venus, expressed from pRSETB/W-SCAT in Escherichia coli).

Consider one protein from patent US20060275822.

B1: active caspase 3 (CPP32, MBL) (protein)
chain: SGISLDNSYKMDYPEMGLCIIINNKNFHKSTGMTSRSGTDVDAANLRETFRNLKYEVRNKNDLTREEIVELMRDVSKEDHSKRSSFVCVLLSHGEEGIIFGTNGPVDLKKITNFFRGDRCRSLTGKPKLFIIQACRGTELDCGIETDSGVDDDMACHKIPVEADFLYAYSTAPGYYSWRNSKDGSWFIQSLCAMLKQYADKLEFMHILTRVNRKVATEFESFSFDATFHAKKQIPCIVSMLTKELYFYH
With B1, the Fluorescent anisotropy (mA) of W-SCAT after 2 hours at 37 C with 1 unit of active caspase 3, measured with Beacon (control without casp3: 225.8) turned out to be 276 mA.
